In PMC6467934, “Cell-Free and Yeast-Based Production of the Malarial Lactate Transporter, PfFNT, Delivers Comparable Yield and Protein Quality” (Frontiers in Pharmacology, 2019):

B1: Plasmodium falciparum lactate transporter PfFNT, produced in Pichia pastoris yeast (natural protein, UniProt O77389 1-309, looked up)
chain: MPPNNSKYVLDPVSIKSVCGGEESYIRCVEYGKKKAHYSNLNLLAKAILAGMFVGLCAHASGIAGGLFYYHKLREIVGASMSVFVYGFTFPIAFMCIICTGSDLFTGNTLAVTMALYEKKVKLLDYLRVMTISLFGNYVGAVSFAFFVSYLSGAFTNVHAVEKNHFFQFLNDIAEKKVHHTFVECVSLAVGCNIFVCLAVYFVLTLKDGAGYVFSVFFAVYAFAIAGYEHIIANIYTLNIALMVNTKITVYQAYIKNLLPTLLGNYIAGAIVLGLPLYFIYKEHYYNFERSKRDNNDAQMKSLSIELRN
notes: PfFNT, lactate transporter (formate-nitrite transporter family) of Plasmodium falciparum; monomer printed as 30 kDa, pentamer 150 kDa; Homopentamer; also called cell-based PfFNT; yeast-produced PfFNT; source: P. pastoris (PichiaPink), fermenter culture; membranes solubilized with LDAO, purified (Ni-NTA, size exclusion) in DM; not shown: His10, C-terminal, kept
B2: Plasmodium falciparum lactate transporter PfFNT, produced cell-free in an E. coli S30 extract (natural protein, UniProt O77389 1-309, looked up)
chain: B1 chain
notes: PfFNT, lactate transporter (formate-nitrite transporter family) of Plasmodium falciparum; codon-optimized open reading frame in pIVEX2.3; monomer printed as 30 kDa, pentamer 150 kDa; Homopentamer; A factor Xa digestion site lies between PfFNT and the C-terminal His10-tag; no cleavage is reported; also called cell-free PfFNT; cell-free produced PfFNT; source: E. coli S30 extract cell-free system …

Molecular target: the molecule itself
Assay: negative-stain transmission electron microscopy with class sums; purified, detergent-solubilized PfFNT (yeast-produced in DM, cell-free in Brij 78); uranyl acetate stain; reference-free alignment without any symmetry imposed

Protein	stoichiometry N
B1	5
B2	5
